# Measurements taken from patent US20050042227A1 (published 2005).
# T1: recombinant human alpha-L-iduronidase (Aldurazyme) (human, UniProt P35475 27-653, limits assumed)
# T1 construct: also called rhIDU; Recombinant human IDU
# T1 sequence (looked up): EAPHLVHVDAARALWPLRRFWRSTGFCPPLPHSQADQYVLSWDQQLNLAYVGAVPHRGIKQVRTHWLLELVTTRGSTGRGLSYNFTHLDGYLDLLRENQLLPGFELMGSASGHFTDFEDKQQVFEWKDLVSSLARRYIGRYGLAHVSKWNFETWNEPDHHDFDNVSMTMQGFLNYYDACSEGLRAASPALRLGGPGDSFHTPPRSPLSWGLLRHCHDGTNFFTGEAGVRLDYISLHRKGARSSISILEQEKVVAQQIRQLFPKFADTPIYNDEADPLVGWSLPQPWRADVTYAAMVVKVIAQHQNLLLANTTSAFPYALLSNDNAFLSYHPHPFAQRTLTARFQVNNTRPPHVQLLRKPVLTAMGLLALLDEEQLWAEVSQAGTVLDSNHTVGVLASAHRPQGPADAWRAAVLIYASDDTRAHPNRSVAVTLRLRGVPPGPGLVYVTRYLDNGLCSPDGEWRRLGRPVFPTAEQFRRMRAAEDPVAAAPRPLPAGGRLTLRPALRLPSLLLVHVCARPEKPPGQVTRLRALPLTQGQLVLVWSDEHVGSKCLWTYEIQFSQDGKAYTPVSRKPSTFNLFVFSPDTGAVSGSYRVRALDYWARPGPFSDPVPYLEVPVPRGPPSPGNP
# What was measured:
# [1] = biological target: mLRP/LRPTmMegT mini-receptor (MEGt) (UniProt Q07954 3293-4444); assay: cell-based or functional assay
# Chain of mLRP/LRPTmMegT mini-receptor (MEGt) (Q07954 3293-4444): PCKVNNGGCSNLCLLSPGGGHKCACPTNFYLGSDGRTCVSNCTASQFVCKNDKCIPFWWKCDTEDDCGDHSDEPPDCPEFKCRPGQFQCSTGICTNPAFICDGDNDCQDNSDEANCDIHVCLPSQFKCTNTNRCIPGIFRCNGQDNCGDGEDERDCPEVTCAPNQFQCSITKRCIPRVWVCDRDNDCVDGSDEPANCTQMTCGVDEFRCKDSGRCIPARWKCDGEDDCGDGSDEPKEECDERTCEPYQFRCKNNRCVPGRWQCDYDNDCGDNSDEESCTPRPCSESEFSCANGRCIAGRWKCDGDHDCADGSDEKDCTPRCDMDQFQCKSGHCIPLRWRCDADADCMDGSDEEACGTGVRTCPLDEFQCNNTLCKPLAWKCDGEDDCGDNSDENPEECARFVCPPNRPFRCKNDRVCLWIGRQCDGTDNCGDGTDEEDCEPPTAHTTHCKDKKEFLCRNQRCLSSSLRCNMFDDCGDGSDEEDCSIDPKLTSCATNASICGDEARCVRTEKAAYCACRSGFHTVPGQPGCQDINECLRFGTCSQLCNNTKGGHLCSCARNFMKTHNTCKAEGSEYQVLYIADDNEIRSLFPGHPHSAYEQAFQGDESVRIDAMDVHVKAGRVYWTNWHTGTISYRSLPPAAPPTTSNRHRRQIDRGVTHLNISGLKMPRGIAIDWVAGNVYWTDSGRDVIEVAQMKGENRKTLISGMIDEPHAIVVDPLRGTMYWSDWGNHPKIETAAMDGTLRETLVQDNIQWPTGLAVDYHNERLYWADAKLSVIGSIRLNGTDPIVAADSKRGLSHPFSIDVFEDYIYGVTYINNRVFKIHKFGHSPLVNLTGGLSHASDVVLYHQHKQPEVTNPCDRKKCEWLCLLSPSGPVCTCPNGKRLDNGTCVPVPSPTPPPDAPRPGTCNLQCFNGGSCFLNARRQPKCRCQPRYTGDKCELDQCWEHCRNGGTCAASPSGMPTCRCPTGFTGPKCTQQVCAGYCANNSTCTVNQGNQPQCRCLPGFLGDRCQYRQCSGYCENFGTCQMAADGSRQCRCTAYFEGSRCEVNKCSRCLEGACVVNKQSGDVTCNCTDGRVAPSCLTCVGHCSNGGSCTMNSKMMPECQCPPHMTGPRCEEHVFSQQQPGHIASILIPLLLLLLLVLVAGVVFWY
# [2] = biological target: T1, recombinant human alpha-L-iduronidase …; assay: ligand blot, sLRP2 spotted on membrane, detection with antibodies
# Method: Membranes were then mounted in a Bio-Rad dot blot apparatus. The second ligand-binding domain of LRP1 (sLRP2, 1 μg/well) was applied to the membrane by vacuum filtration. The membrane was then cut into sections that were placed in separate wells of a 24-well plate. Membranes were blocked in TBS (20 mM Tris pH 7.4, 150 mM Sodium Chloride) with 5 mM Calcium Chloride and 3% non-fat dry milk for 30 minutes. Ligands were incubated with each membrane spot for 2 hours at room temperature. Individual blots were washed 2×5 minutes each with blocking buffer and then incubated with different antibodies in block buffer for one hour at room temperature to detect binding.
"ratio of apical-to-basolateral to basolateral-to-apical permeability coefficient of 125I-RAP, MEGt-transfected MDCK [1] [times]",binding result [2],Binder
460,–,receptor-associated protein (RAP) (ligand) YSREKNQPKPSPKRESGEEFRMEKLNQLWEKAQRLHLPPVRLAELHADLKIQERDELAWKKLKLDGLDEDGEKEARLIRNLNVILAKYGLDGKKDARQVTSNSLSGTQEDGLDDPRLEKLWHKAKTSGKFSGEELDKLWREFLHHKEKVHEYNVLLETLSRTEEIHENVISPSDLSDIKGSVLHSRHTELKEKLRSINQGLDRLRRVSHQGYSTEAEFEEPRVIDLWDLAQSANLTDKELEAFREELKHFEAKIEKHNHYQKQLEIAHEKLRHAESVGDGERVSRSREKHALLEGRTKELGYTVKKHLQDLSGRISRARH
–,no binding,"sLRP2, the entire second ligand-binding domain of human LRP1 (receptor, UniProt Q07954 806-1183, looked up, Recombinant soluble fragment made as in Bu and Rennke 1996; also called immobilized LRP) KCRVNNGGCSSLCLATPGSRQCACAEDQVLDADGVTCLANPSYVPPPQCQPGEFACANSRCIQERWKCDGDNDCLDNSDEAPALCHQHTCPSDRFKCENNRCIPNRWLCDGDNDCGNSEDESNATCSARTCPPNQFSCASGRCIPISWTCDLDDDCGDRSDESASCAYPTCFPLTQFTCNNGRCININWRCDNDNDCGDNSDEAGCSHSCSSTQFKCNSGRCIPEHWTCDGDNDCGDYSDETHANCTNQATRPPGGCHTDEFQCRLDGLCIPLRWRCDGDTDCMDSSDEKSCEGVTHVCDPSVKFGCKDSARCISKAWVCDGDNDCEDNSDEENCESLACRPPSHPCANNTSVCLPPDKLCDGNDDCGDGSDEGELCD"
